{"source": "patent US20250074980A1", "about": "(BRIGHAM AND WOMEN S HOSPITAL, published 2025)", "binders": {"B1": {"name": "chimeric antibody VH0/Vκ0 (antibody, IgG4, V domains shown)", "VH": "EVQLVESGGDLVKPGGSLKLACAASGFIFSSHGMSWVRQTPDKRLEWVATISSGGTYTYYPDSVKGRFTISRDNDKNTLYLQMNSLKSEDTAMYYCARHDFDYDAAWFAYWGQGTLVTVSS", "VL": "QIVLTQSPALMSASPGVKVTMTCSANSSVSYMYWYRQKPRSSPKPWIYLTSNLASGVPARFSGSGSGTSYSLTISSMEAEDAATYYCQQWSSNPPTFGSGTKLEIK", "notes": "IgG4 (S241P), kappa; also called VH0/Vκ0 (control); Chimeric VH0/Vκ0"}, "B2": {"name": "VH1/Vκ8 S29A (antibody, IgG4, V domains shown)", "VH": "B1 VH with V5L, D10G, K13Q, K19R, A21S, T40A, D42G, R44G, D75S, S88A", "VL": "EIVLTQSPATLSLSPGERATLSCRANSAVSYMYWYQQKPGQAPRPWIYLTSNRATGVPARFSGSGSGTDYTLTISSLEPEDFAVYYCQQWSSNPPTFGQGTKLEIK", "notes": "IgG4 (S241P), kappa; also called Parent; Parent (VH1/Vκ8 S29A)"}, "B3": {"name": "CP08H03/Vκ8 S29A (antibody, IgG4, V domains shown)", "VH": "EVQLLESGGGLVQPGGSLRLSCAASGFIFSSHGMSWVRQAPGKGLEWVATISSGGTYTYYPDSVKGRFTISRDNSKNTLYLQMNSLKAEDTAMYYCARHDFDYFPYWFAHWGQGTLVTVSS", "VL": "B2 VL", "notes": "IgG4 (S241P), kappa; also called CP08_H03/Parent VL; CP08_H03/Parental"}}, "key": {"[1]": {"biological_target": "T1, CEACAM6 on transfected HeLa cells (human, UniProt P40199 35-320)", "T1 construct": "whole, on cells; also called HeLa-CEACAM6; HeLa C6", "T1 sequence (looked up)": "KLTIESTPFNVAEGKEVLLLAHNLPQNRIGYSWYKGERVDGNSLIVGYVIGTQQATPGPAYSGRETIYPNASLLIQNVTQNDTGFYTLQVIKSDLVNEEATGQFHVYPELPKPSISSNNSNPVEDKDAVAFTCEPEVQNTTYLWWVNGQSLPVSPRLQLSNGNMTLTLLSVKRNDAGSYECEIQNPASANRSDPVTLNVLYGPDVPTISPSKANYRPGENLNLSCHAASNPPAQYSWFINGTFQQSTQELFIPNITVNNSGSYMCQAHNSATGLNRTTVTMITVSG", "experiment": "flow cytometry, HeLa-CEACAM6 transfectants, % positive cells"}, "His-tagged CEACAM1 [2]": {"biological_target": "T2, His-tagged CEACAM1 (human, UniProt P13688 35-428)", "T2 construct": "45 kDa SPR analyte; also called CEACAM1-HIS; CEACAM1 analyte", "T2 sequence": "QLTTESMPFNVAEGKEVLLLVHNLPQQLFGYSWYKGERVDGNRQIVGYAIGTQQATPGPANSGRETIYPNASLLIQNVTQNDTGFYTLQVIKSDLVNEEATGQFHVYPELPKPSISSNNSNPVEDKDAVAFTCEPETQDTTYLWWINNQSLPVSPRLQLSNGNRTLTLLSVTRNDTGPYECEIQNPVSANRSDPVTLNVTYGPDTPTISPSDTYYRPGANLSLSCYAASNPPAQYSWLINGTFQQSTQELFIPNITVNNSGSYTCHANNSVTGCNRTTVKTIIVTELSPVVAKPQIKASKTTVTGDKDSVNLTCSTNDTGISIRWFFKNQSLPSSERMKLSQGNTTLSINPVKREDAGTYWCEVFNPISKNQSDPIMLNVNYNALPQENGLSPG", "experiment": "SPR multi-cycle, IgG captured"}, "His-tagged CEACAM1 [3]": {"biological_target": "T2, His-tagged CEACAM1", "experiment": "SPR single-cycle, supernatant IgG captured", "method_in_brief": "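Humanized, affinity-matured IgGs from crude supernatant (0.5 μg/ml in HBS-P+) captured on Protein A to ~100 RU. Single-cycle kinetics: CEACAM1 at three concentrations, 70–280 nM two-fold, 80 μl/min, 80 s association each, 150 s dissociation. Reference-channel and blank-run subtraction applied.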"}, "GST-CEACAM1": {"biological_target": "T3, GST-CEACAM1 (human, UniProt P13688 35-141, limits assumed)", "T3 construct": "also called human CEACAM1-GST protein", "T3 sequence": "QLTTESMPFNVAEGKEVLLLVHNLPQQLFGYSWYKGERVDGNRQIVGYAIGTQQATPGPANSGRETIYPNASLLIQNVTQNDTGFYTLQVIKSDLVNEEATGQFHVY", "experiment": "competition ELISA: binding of human CEACAM1-GST (37.5 µg/ml) to human TIM-3 IgV domain tagless protein (3 µg/ml), anti-GST detection, OD 450 nm", "experimental": "The ability of the CEACAM1 antibodies to reduce the binding of CEACAM1 to TIM-3 was examined. […] In addition, human IgG4 antibody was used as a control (0-1000 nM). Goat polyclonal anti-GST-HSP antibody from Abcam (1:2000) was used and assays were developed by addition of TMB solution (Life technologies). OD values were read at 450 nm on a plate reader. Data was plotted in a Graphpad and best-fit IC-50 values were determined."}}, "note": "Numbering of substitutions follows the chain as printed. Names may count otherwise."}
{"binder": "B1", "values": [{"measurement": "binding result", "setting": "[1]", "result": "no binding"}, {"measurement": "relative KD to VH0/Vκ0", "setting": "His-tagged CEACAM1 [2]", "result": 1}]}
{"binder": "B2", "values": [{"measurement": "Kd", "setting": "His-tagged CEACAM1 [3]", "result": 560, "unit": "nM"}, {"measurement": "koff", "setting": "His-tagged CEACAM1 [3]", "result": 0.053, "unit": "s⁻¹"}, {"measurement": "kon", "setting": "His-tagged CEACAM1 [3]", "result": 94000, "unit": "M⁻¹ s⁻¹"}, {"measurement": "relative KD to parent", "setting": "His-tagged CEACAM1 [3]", "result": 1}]}
{"binder": "B3", "values": [{"measurement": "IC50", "setting": "GST-CEACAM1", "result": 31.9, "unit": "nM"}]}
